Assay results reported in IntAct's records for PubMed 15150238.

B1: DnaA regulatory inactivator Hda (Escherichia coli (strain K12)), P69931 (parent)
chain: MNTPAQLSLPLYLPDDETFASFWPGDNSSLLAALQNVLRQEHSGYIYLWAREGAGRSHLLHAACAELSQRGDAVGYVPLDKRTWFVPEVLDGMEHLSLVCIDNIECIAGDELWEMAIFDLYNRILESGKTRLLITGDRPPRQLNLGLPDLASRLDWGQIYKLQPLSDEDKLQALQLRARLRGFELPEDVGRFLLKRLDREMRTLFMTLDQLDRASITAQRKLTIPFVKEILKL

Experiments:
dpo3b_ecoli dnaN, P0A988 [1] = variants of: B1; settings: with dpo3b_ecoli dnaN
dpo3b_ecoli dnaN, P0A988 [2] = variants of: B1; settings: with dpo3b_ecoli dnaN; remark: listed apart in the source

Sequence of dpo3b_ecoli dnaN, P0A988 (P0A988 whole entry): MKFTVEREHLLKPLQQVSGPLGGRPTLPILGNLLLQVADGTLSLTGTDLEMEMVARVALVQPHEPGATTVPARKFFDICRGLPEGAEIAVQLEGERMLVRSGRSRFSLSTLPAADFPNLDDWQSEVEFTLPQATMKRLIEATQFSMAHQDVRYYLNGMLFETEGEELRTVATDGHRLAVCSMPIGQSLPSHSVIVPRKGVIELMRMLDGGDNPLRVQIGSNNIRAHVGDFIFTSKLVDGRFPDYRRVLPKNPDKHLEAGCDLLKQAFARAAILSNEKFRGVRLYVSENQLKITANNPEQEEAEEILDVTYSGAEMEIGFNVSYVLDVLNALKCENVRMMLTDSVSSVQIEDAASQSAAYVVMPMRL

Row | effect of a mutation on the interaction (dpo3b_ecoli dnaN, P0A988 [1]) | effect of a mutation on the interaction (dpo3b_ecoli dnaN, P0A988 [2]) | Variant
1 | decreasing interaction | disrupting interaction | MNTPAQASAPLYLPDDETFASFWPGDNSSLLAALQNVLRQEHSGYIYLWAREGAGRSHLLHAACAELSQRGDAVGYVPLDKRTWFVPEVLDGMEHLSLVCIDNIECIAGDELWEMAIFDLYNRILESGKTRLLITGDRPPRQLNLGLPDLASRLDWGQIYKLQPLSDEDKLQALQLRARLRGFELPEDVGRFLLKRLDREMRTLFMTLDQLDRASITAQRKLTIPFVKEILKL [L7A;L9A]
2 | decreasing interaction | disrupting interaction | MNTPAQLSAALYLPDDETFASFWPGDNSSLLAALQNVLRQEHSGYIYLWAREGAGRSHLLHAACAELSQRGDAVGYVPLDKRTWFVPEVLDGMEHLSLVCIDNIECIAGDELWEMAIFDLYNRILESGKTRLLITGDRPPRQLNLGLPDLASRLDWGQIYKLQPLSDEDKLQALQLRARLRGFELPEDVGRFLLKRLDREMRTLFMTLDQLDRASITAQRKLTIPFVKEILKL [L9A;P10A]
